# Key:
# Assay type in all cases: binding
# [1] = Competitive immunoassay-3 with Metabolite 1 as competitor (Example 7); settings: for 4-P Fit parameter C, Concentration vs % B/B0: Metabolite 1 as competitor, biotinylated tofacitinib 1 ng/ml; for cross reactivity to metabolite 1 (in words, FIG. 3): competitive immunoassay
# Method: (§1) After washing the plates, 200 μl of streptavidin-HRP (50 ng/ml) was added and the plates were then incubated for 0.5-1 hour at room temperature. After washing the plates again, 200 μl of TMB (3,3′,5,5′-Tetramethylbenzidine) substrate was added, then color developed for 30 minutes, and the reaction was stopped by adding 50 μl 2 N sulfuric acid. Absorbance at 450 nm was measured.
# For this example, eleven anti-tofacitinib monoclonal antibodies were screened for cross reactivity with metabolite 1 using competitive immunoassay. […] After washing the plates, 200 μl of streptavidin-HRP (50 ng/ml) was added and then incubated for 0.5-1 hour at room temperature. After washing the plates again, 200 μl of TMB substrate was added, then developed for 30 minutes, and stopped by adding 50 μl 2 N sulfuric acid. Absorbance at 450 nm was measured.
# [2] = Cross reactivity to Metabolite 1, competitive immunoassay-3 or direct ELISA (Example 12); settings: for Metabolite 1 Cross reactivity: Table 10
# Method: as §1
# [3] = Antigen ED50 in cross reactivity experiment (Example 9); settings: antibody at EC50 dilution; biotinylated tofacitinib 1 ng/mL
# Method: (§2) Two clones, 6D9.A8 and 12D4.G6, were tested for cross reactivity to metabolites 1 and 2. In this experiment, the metabolites were prepared at concentrations of 200,000 to 200 ng/ml and the antibody clones were prepared at their EC50 dilutions shown in Table 1.
# [4] = Antigen competition immunoassay, unlabeled tofacitinib vs biotinylated tofacitinib (Example 8)
# Method: After washing the plates, 200 μl of streptavidin-HRP (50 ng/ml) was added and then incubated for 0.5-1 hour at room temperature. After washing the plates again, 200 μl of TMB substrate was added, then developed for 30 minutes, and stopped by adding 50 μl 2N sulfuric acid. Absorbance at 450 nm was measured.
# [5] = Standard curve with tofacitinib, ELISA (Example 10); settings: biotinylated tofacitinib 1 ng/ml
# From the text: FIG. 4 is a graph depicting optimal dilution ranges of select monoclonal antibodies of the invention, e.g., 6D9.A8 (open circles) and 12D4.G6 (open squares) as determined by ELISA.
# [6] = Tofacitinib dose response curves with antibody clones (Example 12); settings: for Antigen ED50: Table 10; for Tofacitinib ED50: tofacitinib 0.001 to 1000 ng/ml, antibody dilution 1:25,600 (6D9.A5), 1:4,000 (6D9.A8), 1:22,000 (12D4.G6); for 4-P Fit parameter C, Concentration vs % B/B0: tofacitinib standard curve
# From the text: Further, the data used to generate the graph shown in FIG. 5 are set forth below in Table 9.
# [7] = Cross reactivity to Metabolite 2, competitive immunoassay-3 or direct ELISA (Example 12); settings: for Metabolite 2 Cross reactivity: Table 10
# Method: as §1
# [8] = Cross reactivity competitive ELISA with Metabolite 2 (Example 9); settings: metabolite 200,000 to 200 ng/ml; antibody at EC50 dilution
# Method: as §2
# [9] = Cross reactivity competitive ELISA with Metabolite 1 (Example 9); settings: metabolite 200,000 to 200 ng/ml; antibody at EC50 dilution
# Method: as §2
# [10] = unlabeled tofacitinib 1000 to 0.001 ng/ml, antibody at EC50 dilution
molecule,measurement,setting,value
"12H4.G2: mouse monoclonal anti-tofacitinib antibody; VH SEQ ID NO:8, VL SEQ ID NO:9 (antibody, listed as Mus musculus, V domains shown) VH: DVQLQGSGPDLVKPSQSLSLTCTVTGYSITSGYSWNWIRQFPGNTLEWMGFIHYSGSTNYNPSLKSRISITRDTSKNQFFLQLNSVTTEDTATYYCVRGPYGSSFYWGQGTTLTVSS VL: QAVVTQESALTTSPGETVTLTCRSSTGAVTTSNYATWVQEKPDHLFTGLIGGTNNRAPGVPARFSGSLIGDKAALTLTGAQTEDEAIYFCALWYSNHWVFGGGTKLTVL","4-P Fit parameter C, Concentration vs % B/B0",[1],0.383
same,"cross reactivity to metabolite 1 (in words, FIG. 3)",[1],did not detectably bind metabolite 1
"16F10.E6: mouse monoclonal anti-tofacitinib antibody; VH SEQ ID NO:10, VL SEQ ID NO:11 (antibody, listed as Mus musculus, V domains shown) VH: DMQLQESGPDLVKPSQSLSLTCTVTGYSITSGYSWNWIRQFPGNTLEWMGYIHYSGNTVYNPSLKSRLSITRDTSKNQFFLQLNSVTTEDTATYYCVRGPYGSSFYWGQGTTLTVSS VL: DIVMTQSQKFMSTSVGDRVSVTCKASQNVGTNVAWYQQKPGQSPKALIYSASYRYSGVPDRFTGSGSGTDFTLTISNVQSEDLAEYFCQQYYNYPLTFGAGTKLELKR","cross reactivity to metabolite 1 (in words, FIG. 3)",[1],did not detectably bind metabolite 1
"5A3.E5: mouse monoclonal anti-tofacitinib antibody; VH SEQ ID NO:1, VL SEQ ID NO:2 (antibody, listed as Mus musculus, V domains shown) VH: EVKLVESGGGLVQPGGSLRLSCATSGFTFNDYYMTWVRQPPGKALEWLGFIRNKADGYTPYYSPSVKGRFTISRDNSQSILYLQMNTLRTEDSATYYCARPHYYGFPFGYWGQGTLVTVSA VL: QAVVTQESALTTSPGETVTLTCRSSTGAVTTNNYANWVQEKPDHLFTGLIGGTNSRAPGVPARFSGSLIGDKAALTITGAQTEDEAMYFCALWYSNHWVFGGGTKLTVL","4-P Fit parameter C, Concentration vs % B/B0",[1],0.191
same,"cross reactivity to metabolite 1 (in words, FIG. 3)",[1],did not detectably bind metabolite 1
"10F10.H5: mouse monoclonal anti-tofacitinib antibody; VH SEQ ID NO:5, VL SEQ ID NO:6 (antibody, listed as Mus musculus, V domains shown) VH: DVQLQESGPDLVKPSQSLSLTCTVTGYSITSGYSWNWIRQFPGNTLEWMGYIHYSGTTNYNPSLKSRISITRDTSKNQFFLQLNSVTAEDTATYYCARGPYGSSFYWGQGTTLAVSS VL: QIVLTQSPAIMSASPGEKVTVTCSASSSVSSMHWFQQKPGTSPKLWIYSTSNLASGVPTRFSGSGSGTSYSLTISRMEAEDVATYYCQQRNNYPYTFGGGTKLEIKR","4-P Fit parameter C, Concentration vs % B/B0",[1],0.345
same,"cross reactivity to metabolite 1 (in words, FIG. 3)",[1],did not detectably bind metabolite 1
"10A6.C5: mouse monoclonal anti-tofacitinib antibody; VH SEQ ID NO:3, VL SEQ ID NO:4 (antibody, listed as Mus musculus, V domains shown) VH: DVQLQESGPDLVKPSQSLSLTCTVTGYSITSGYSWNWIRQFPGNTLEWMGYIHYSGSTNYNPSLKSRISITRDTSKNQFFLQLNSVTTEDTATYYCVRGPYGSSFYWGQGTTLTVSS VL: NIVMTQSPKSMSMSVGERVTLTCKASENVVTYVSWYQQKPEQSPKLLIYGASNRYTGVPDRFTGSGSATDFTLTISSVQAEDLADYHCGQGYSYPYTFGGGTKLEIKR","4-P Fit parameter C, Concentration vs % B/B0",[1],0.389
same,"cross reactivity to metabolite 1 (in words, FIG. 3)",[1],did not detectably bind metabolite 1
"12D4.G6: mouse monoclonal anti-tofacitinib antibody; VH SEQ ID NO:12, VL SEQ ID NO:4 (antibody, listed as Mus musculus, V domains shown) VH: QVQLKESGPGLVAPSQSLSITCTVSGFSLSIYSVHWVRQPPGKGLEWLGMIWGGGNTDYNSVLKSRLSISKDNSKSQVFLKVNSLQTDDTAMYYCARIYYGIFWGQGTLVTVSA VL: NIVMTQSPKSMSMSVGERVTLTCKASENVVTYVSWYQQKPEQSPKLLIYGASNRYTGVPDRFTGSGSATDFTLTISSVQAEDLADYHCGQGYSYPYTFGGGTKLEIKR",binding of metabolite 1 (in words),[2],did not substantially bind
same,Metabolite 1 Cross reactivity,[2],4.17%
same,Antigen ED50,[3],0.152 µg/mL
same,competition by unlabeled tofacitinib for binding to biotinylated tofacitinib (in words),[4],competition was seen
same,ED20,[4]; [10],0.457 µg/mL
same,ED50,[4]; [10],0.104 µg/mL
same,ED80,[4]; [10],0.024 µg/mL
same,"4-P Fit parameter C, Concentration vs % B/B0",[1],2.14 × 10^7
same,"cross reactivity to metabolite 1 (in words, FIG. 3)",[1],did not detectably bind metabolite 1
same,4-P Fit parameter C,[5],109
same,Antigen ED50,[6],118 ng/mL
same,Tofacitinib ED50,[6],0.118 µg/mL
same,"4-P Fit parameter C, Concentration vs % B/B0",[6],108
same,binding of metabolite 2 (in words),[7],did not substantially bind
same,Metabolite 2 Cross reactivity,[7],0.15%
same,Metabolite-2 Cross reactivity,[8],0.15%
same,Metabolite-1 Cross reactivity,[9],4.17%
"6D9.A5: mouse monoclonal anti-tofacitinib antibody; VH SEQ ID NO:7, VL SEQ ID NO:4; replacement subclone for 6D9.A8 (antibody, listed as Mus musculus, V domains shown, mouse monoclonal anti-tofacitinib antibody; replacement subclone for 6D9.A8) VH: QVQLKESGPGLVAPSESLTITCTVSGFSLSRYSIHWVRQPPGKGLEWLGMIWGGGSTDYNSVLKSRLTIRKDYSKSQVFLKMNSLQTDDTAMYYCARIYYGIYWGQGTLVTVSA VL: NIVMTQSPKSMSMSVGERVTLTCKASENVVTYVSWYQQKPEQSPKLLIYGASNRYTGVPDRFTGSGSATDFTLTISSVQAEDLADYHCGQGYSYPYTFGGGTKLEIKR",binding of metabolite 1 (in words),[2],did not substantially bind
same,Metabolite 1 Cross reactivity,[2],4.47%
same,"cross reactivity to metabolite 1 (in words, FIG. 3)",[1],did not detectably bind metabolite 1
same,"binding of the parent drug, potency compared with antibody 12D4.G6 (in words)",[6],more potent binders of the parent drug
same,Antigen ED50,[6],244 ng/ml ng/mL
same,Tofacitinib ED50,[6],0.244 µg/mL
same,"4-P Fit parameter C, Concentration vs % B/B0",[6],224
same,binding of metabolite 2 (in words),[7],did not substantially bind
same,Metabolite 2 Cross reactivity,[7],<0.01%
